The text below walks through data of patent US20150307625A1 (Bayer, published 2015).

Assay [1] deals with T1, human activated Protein C (human, UniProt P04070 43-461).
T1 construct: also called human aPC; hAPC
As to the kind of experiment: direct ELISA, aPC coated, hIgG1.

The target in assay [2] is rabbit activated Protein C (rabbit) (UniProt Q28661). Nature of the assay: direct ELISA, aPC coated, hIgG1. A general note: In an ELISA, binding on a coated surface is turned into a signal by an enzyme label.
The target in assay [3] is T1, human activated Protein C. As to the kind of experiment: cell-based or functional assay.
For assay [4], the target named is rabbit activated Protein C (rabbit) (UniProt Q28661). As to the kind of experiment: ELISA, hIgG1.
Assay [5] addresses T1, human activated Protein C. Nature of the assay: ELISA, hIgG1.
For assay [6], the target named is rabbit activated Protein C (rabbit) (UniProt Q28661). As to the kind of experiment: cell-based or functional assay.
Assay [7] addresses T2, dog activated Protein C (dog, UniProt Q28278 43-456).
T2 construct: mature; also called dog aPC; dAPC
T2 sequence (looked up): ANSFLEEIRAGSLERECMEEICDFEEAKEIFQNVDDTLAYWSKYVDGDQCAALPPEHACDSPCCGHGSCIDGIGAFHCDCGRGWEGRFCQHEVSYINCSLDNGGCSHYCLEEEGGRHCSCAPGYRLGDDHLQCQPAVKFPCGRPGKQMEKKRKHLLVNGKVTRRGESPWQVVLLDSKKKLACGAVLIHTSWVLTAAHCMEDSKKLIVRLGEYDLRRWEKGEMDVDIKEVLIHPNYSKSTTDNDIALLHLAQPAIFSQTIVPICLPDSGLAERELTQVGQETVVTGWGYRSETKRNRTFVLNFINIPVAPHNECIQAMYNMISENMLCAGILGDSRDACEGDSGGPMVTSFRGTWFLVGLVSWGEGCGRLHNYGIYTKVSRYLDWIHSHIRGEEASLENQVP
As to the kind of experiment: direct ELISA, aPC coated, hIgG1.

For assay [8], the target named is T2, dog activated Protein C. Nature of the assay: cell-based or functional assay.
Assay [9] concerns the target T3, dog Protein C (zymogen) (dog, UniProt Q28278 43-456).
T3 construct: mature; also called dog PC
T3 sequence (looked up): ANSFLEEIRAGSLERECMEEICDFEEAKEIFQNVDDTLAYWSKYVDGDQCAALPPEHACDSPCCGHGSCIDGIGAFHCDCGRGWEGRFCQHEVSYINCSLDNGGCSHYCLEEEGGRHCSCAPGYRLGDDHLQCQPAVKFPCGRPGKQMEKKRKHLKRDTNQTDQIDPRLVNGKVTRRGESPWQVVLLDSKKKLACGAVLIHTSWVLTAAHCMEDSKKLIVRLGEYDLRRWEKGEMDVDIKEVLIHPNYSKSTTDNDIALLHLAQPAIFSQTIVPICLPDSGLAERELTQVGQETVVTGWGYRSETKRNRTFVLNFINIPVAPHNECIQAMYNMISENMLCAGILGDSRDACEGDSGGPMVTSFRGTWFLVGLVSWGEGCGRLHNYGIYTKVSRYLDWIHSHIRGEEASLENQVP
As to the kind of experiment: direct ELISA, antigen coated.

For assay [10], the target named is T2, dog activated Protein C. Nature of the assay: ELISA, hIgG1.
For assay [11], the target named is T4, human Protein C (zymogen) (human, UniProt P04070 43-461).
T4 construct: also called human PC; hPC
Nature of the assay: direct ELISA, antigen coated at 1 ug/ml, IgG at 20 nM, anti-human IgG-HRP, AmplexRed (RFU).

The target in assay [12] is T5, mouse Protein C (zymogen) (mouse, UniProt P33587 42-460).
T5 construct: mature; also called mouse PC
T5 sequence (looked up): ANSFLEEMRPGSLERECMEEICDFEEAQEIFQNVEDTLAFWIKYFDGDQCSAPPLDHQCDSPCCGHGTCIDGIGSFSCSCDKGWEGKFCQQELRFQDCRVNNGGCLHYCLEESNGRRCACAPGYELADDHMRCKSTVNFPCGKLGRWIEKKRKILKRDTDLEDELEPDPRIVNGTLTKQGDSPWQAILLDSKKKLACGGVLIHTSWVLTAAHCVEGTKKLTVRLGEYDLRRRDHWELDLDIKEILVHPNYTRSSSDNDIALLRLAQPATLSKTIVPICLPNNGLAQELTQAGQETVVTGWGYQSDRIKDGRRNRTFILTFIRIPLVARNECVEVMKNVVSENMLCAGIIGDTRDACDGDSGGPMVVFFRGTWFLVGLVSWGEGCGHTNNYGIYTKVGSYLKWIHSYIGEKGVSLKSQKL
As to the kind of experiment: direct ELISA, mPC coated at 10 ug/ml, Fab at 20 nM, anti-human Fab-HRP, AmplexRed (RFU). On the procedure:
(§1) To determine the binding selectivity of these fabs, their binding activities to the proenzyme human PC, to thrombin (FIIa), and to the activated Factor II (FIIa, thrombin), Factor VII (FVIIa), Factor IX (FIXa), and Factor X (FXa) were also assessed by ELISA. Briefly, an ELISA plate was coated with human aPC at 1 ug/ml, mouse PC at 10 ug/ml, dog PC at 10 ug/ml, other coagulation factors (FIIa, FVIIa, FIXa, FXa) at 5-10 ug/ml. Anti-aPC Fabs were added to the wells at 20 nM (1 ug/ml). Bound Fabs were detected by the secondary antibody (anti-human Fab-HRP) followed by HRP substrate AmplexRed.

The target in assay [13] is T4, human Protein C (zymogen). Nature of the assay: direct ELISA, antigen coated at 100 ng/well, Fab at 20 nM (1 ug/ml), anti-human Fab-HRP, AmplexRed (RFU). Here is the method:
FIG. 3 depicts a graph characterizing anti-APC Fabs by direct ELISA. An ELISA plate was coated with human PC (hPC), human aPC (hAPC), dog aPC (dAPC), mouse aPC (mAPC) at 100 ng per well. Purified Fabs designate on the X-axis were added to the plate at 20 nM (1 ug/ml). Bound Fab was detected by the secondary antibody (anti-human Fab-HRP) followed by HRP substrate AmplexRed. The purified Fabs preferentially bind to human aPC and, with the exception of Fab R41C17, show little to no binding to human PC.
Antigens were coated directly on ELISA plates. Coating antigens included human PC (plasma-derived), human aPC (recombinant), dog aPC (plasma-derived), and mouse aPC (recombinant) at 100 ng/well in PBS/Ca buffer. After blocking the plate with 5% milk/PBS and washing the plate with PBS-Tween20, soluble Fabs (1 ug/ml, 20 nM) were added to the plate and incubated for 1 h at RT with shaking. Fab binding was detected with anti-human Fab (lambda) antibody-HRP and Amplex red as substrate. […] In contrast, R41C17 binds to both human APC and human PC. Also shown in FIG. 3 is cross-species reactivity of Fabs by ELISA.

In assay [14] the target is T3, dog Protein C (zymogen). As to the kind of experiment: direct ELISA, dPC coated at 10 ug/ml, Fab at 20 nM, anti-human Fab-HRP, AmplexRed (RFU). On the procedure: as §1
The target in assay [15] is T2, dog activated Protein C. Nature of the assay: direct ELISA, antigen coated, Fab.
In assay [16] the target is T1, human activated Protein C. As to the kind of experiment: direct ELISA, antigen coated, Fab.
The target in assay [17] is T2, dog activated Protein C. Nature of the assay: Biacore, Fab. (In SPR one partner is held on a chip, and binding of the other changes the refractive index at the surface.)
The target in assay [18] is T1, human activated Protein C. Nature of the assay: Biacore, Fab.
Assay [19] has as its target T1, human activated Protein C. As to the kind of experiment: cell-based or functional assay. The source holds these as a separate data set.

Changes are numbered by the printed parent chain.

B1: C22J13 hIgG1 (antibody, V domains shown)
VH: EVQLLESGGGLVQPGGSLRLSCAASGFTFSSNYMSWVRQAPGKGLEWVAVISYDGSNKYYADSVKGRFTISRDNSKNTLYLQMNSLRAEDTAMYYCALTGRSGWMRFPNWFDPWGQGTLVTVTS
VL: QSVLTQPPSASGTPGQRVTISCSGSDSNIGSNAVNWYQQLPGTAPKLLIYDNNKRPSGVPDRFSGSKSGTSASLAISGLRSEDEADYYCSSYTSSNTVVFGGGTKLTVLG
Broadly, the EC50 is the concentration that produces a half-maximal response. Lower therefore signals a more potent agent. Take B1: the EC50 in assay [1] was determined as 0.49 nM; in assay [2], 0.6 nM; in assay [4] it was 0.6 nM; in assay [5] it was 0.5 nM. Besides, the “Anti-aPC IC50 (nM), Amidolytic activity” value in [3] was found to be 27 nM; in assay [6], 24 nM.

B2: C7A23 hIgG1 (antibody, V domains shown)
VH: EVQLLESGGGLVQPGGSLRLSCAASGFTFGNHWMTWVRQAPGKGLEWVSGVSWNGSRTHYADSVKGRFTISRDNSKNTLYLQMNSLRAEDTAVYYCALTGRSGWMRFPNWFDPWGQGTLVTVTS
VL: QSVLTQPPSASGTPGQRVTISCSGSSSNIGNNYVSWYQQLPGTAPKLLIYRNNQRPSGVPDRFSGSKSGTSASLAISGLRSEDEADYYCQSYDSDLSGPYVLFGGGTKLTVLG
notes: also called C7A23-IgG
Consider B2, for which the EC50 with dog activated Protein C [7] was determined as 10.9 nM; in [2] it was 7 nM; in [4], 7 nM; in the assay with dog activated Protein C [10], 10.9 nM. The “Anti-aPC IC50 (nM), Amidolytic activity” value turned out to be 49 nM with dog activated Protein C [8] and 25 nM in [6]. In the assay with dog Protein C (zymogen) [9], the binding result is on record as “no binding”.

B3: C25K23 IgG1 (antibody, V domains shown)
VH: B2 VH with G30S, N31S, H32Y, T35S, T123S
VL: QSVLTQPPSASGTPGQRVTISCTGSSSNIGAAYDVHWYQQLPGTAPKLLIYGNNKRPSGVPDRFSGSKSGTSASLAISGLRSEDEADYYCQSYDSSLSGSVFGGGTKLTVLG
notes: the claims call them variable regions; also called C25K23 hIgG; C25K23 hIgG1
As to B3, the half-maximal effective concentration (EC50) turned out to be 3.4 nM with dog activated Protein C [7], 1.25 nM in assay [1], 3.4 nM with dog activated Protein C [10] and 1.2 nM in assay [5]. Besides, the “Anti-aPC IC50 (nM), Amidolytic activity” value turned out to be 692 nM in the assay with dog activated Protein C [8] and 131 nM in assay [3]. Further, the binding result was “no binding” with dog Protein C (zymogen) [9] and “no binding (tested: 20 nM)” in assay [11].

B4: C25K23 Fab (Fab, V domains shown)
VH: B2 VH with G30S, N31S, H32Y, T35S
VL: B3 VL
notes: Human Fab (lambda) from a phage library, expressed in E. coli; also called Fab C25K23
By Kd is commonly meant the constant that tells how readily two partners part at equilibrium. A high value points to lower affinity. With B4, the binding result (in [12]; in assay [13]; in the assay with dog Protein C (zymogen) [14]) was “no binding (tested: 20 nM)” each time. The results for the EC50 (in the assay with dog activated Protein C [15]; in assay [16]) were 8.2 nM and 4.3 nM, respectively. For the same molecule, the Kd with dog activated Protein C [17] worked out at 5.2 nM; in assay [18], 2 nM.

B5: C7A23 Fab (Fab, V domains shown)
VH: B2 VH
VL: B2 VL
notes: Human Fab (lambda) from a phage library, expressed in E. coli
In the case of B5, the binding result (in assay [12]; in the assay with dog Protein C (zymogen) [14]) was “no binding (tested: 20 nM)” each time. In the assay with dog activated Protein C [15], this molecule came in with an EC50 of 6 nM. In addition, the equilibrium dissociation constant (Kd) with dog activated Protein C [17] turned out to be 1.3 nM.

B6: C7I7 Fab (Fab, V domains shown)
VH: B2 VH
VL: QSVLTQPPSASGTPGQRVTISCTGSSSNIGAGYDVHWYQQLPGTAPKLLIYGNSNRPSGVPDRFSGSKSGTSASLAISGLRSEDEAAYYCSSYVGSDLVVFGGGTKLTVLG
notes: Human Fab (lambda) from a phage library, expressed in E. coli; also called C717
In the case of B6, the binding result (in assay [12]; in assay [13]; with dog Protein C (zymogen) [14]) was “no binding (tested: 20 nM)” throughout. The concentration giving a half-maximal response (EC50) came to 3.9 nM in the assay with dog activated Protein C [15] and 6.3 nM in assay [16]. The Kd (with dog activated Protein C [17]; in [18]) was 1.3 nM throughout.

B7: C7I7 hIgG1 (antibody, V domains shown)
VH: B2 VH
VL: B6 VL
notes: also called C717-IgG
Consider B7, for which the “aPTT, inhibition of aPC activity at 1 ug/ml IgG (1:1 molar ratio)” value in assay [19] is approximately 50%. The EC50 turned out to be 2.3 nM in the assay with dog activated Protein C [7]; 2.66 nM in assay [1]; 2 nM in assay [2]; 2 nM in [4]; 2.3 nM with dog activated Protein C [10]; 2.7 nM in [5]. Moreover, the figures for the “Anti-aPC IC50 (nM), Amidolytic activity” value (in the assay with dog activated Protein C [8]; in [3]; in assay [6]) were 147 nM, 64 nM and 29 nM, respectively. Further, the values for the binding result (with dog Protein C (zymogen) [9]; in assay [11]) were “no binding” and “no binding (tested: 20 nM)”, respectively.
